Source: article PMC2726290, “Decoding of Methylated Histone H3 Tail by the Pygo-BCL9 Wnt Signaling Complex” (Molecular Cell, 2008)

Columns and labels:
Assay in all cases: ITC; protein dialysed into 100 mM NaCl, 25 mM Tris-HCl (pH 8.0), 10 uM ZnCl2, 2 mM beta-mercaptoethanol; histone peptides with free PHD or PHD-HD1 complex; one-site model
[1] = molecular target: dPHD-HD1 complex (Drosophila Pygo PHD 747-808 with Lgs HD1 316-350) (Drosophila) (UniProt Q9V9W8)
[2] = molecular target: hPHD-HD1 complex (hPygo1 PHD 333-402 with hBCL9 HD1) (human) (UniProt Q9Y3Y4)
[3] = molecular target: hPygo1 PHD finger (amino acids 333-402), free (human) (UniProt Q9Y3Y4)
Chain of hPygo1 PHD finger (amino acids 333-402), free (human) (Q9Y3Y4 333-402): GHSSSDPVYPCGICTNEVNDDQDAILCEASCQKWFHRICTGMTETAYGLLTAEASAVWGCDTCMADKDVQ

Chain of dPHD-HD1 complex (Drosophila Pygo PHD 747-808 with Lgs HD1 316-350) (Drosophila) (Q9V9W8 747-808, chain 1 of 2): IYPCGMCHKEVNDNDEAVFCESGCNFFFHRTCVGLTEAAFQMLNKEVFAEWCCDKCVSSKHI
Chain of dPHD-HD1 complex (Drosophila Pygo PHD 747-808 with Lgs HD1 316-350) (Drosophila) (Q961D9 316-350, chain 2 of 2, further chain): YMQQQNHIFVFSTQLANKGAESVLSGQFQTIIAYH
Chain of hPHD-HD1 complex (hPygo1 PHD 333-402 with hBCL9 HD1) (human) (Q9Y3Y4 333-402, chain 1 of 2): as the sequence (Q9Y3Y4 333-402) above
Chain of hPHD-HD1 complex (hPygo1 PHD 333-402 with hBCL9 HD1) (human) (O00512 177-205, chain 2 of 2, further chain): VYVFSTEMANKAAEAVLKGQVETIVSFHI

| Substance | Kd [1] [µM] | Kd [2] [µM] | Kd [3] [µM] |
| --- | --- | --- | --- |
| H3K4me1 15-mer histone H3 tail peptide (from UniProt P68431 2-16) | 22 | 2.9 | 9 |
| H3K4me3 15-mer histone H3 tail peptide (from UniProt P68431 2-16) | 23 | – | – |
| H3K4me2 15-mer histone H3 tail peptide (from UniProt P68431 2-16) | 13 | 0.9 | 2.4 |
